Experiments:
[1] = target: c-Met/HGF receptor of rat liver plasma membrane (rat) (UniProt P97523); experiment: displacement of 60 pM 125I-HGF from rat liver plasma membrane
[2] = target: c-Met/HGF receptor expressed on the lung tumor cell line A549 (UniProt P08581); experiment: cell-based or functional assay
[3] = target: c-Met/HGF receptor of rat liver plasma membrane (rat) (UniProt P97523); experiment: Scatchard analysis, 125I-HGF on rat liver plasma membrane
[4] = target: T1, c-Met/HGF receptor of rat liver plasma membrane (rat, UniProt P97523 25-1382); experiment: displacement of 60 pM 125I-HGF from rat liver plasma membrane
T1 construct: whole, on cells; The assay used a plasma membrane preparation, not a purified receptor; also called cell surface receptor; HGF receptors
Excerpt: (§1) Using the HGF/NK4 prepared in Example 1, its binding affinity for the cell surface receptor was investigated. As a control experiment, the binding affinity of HGF for the cell surface receptor was also investigated. In this connection, the HGF/NK4 and HGF were radio-labeled (¹²⁵I-HGF/NK4 and ¹²⁵I-HGF) by the chloramine-T method, and as the cell surface receptor sample, the plasma membrane prepared from the rat liver was used.
Then, to investigate whether HGF/NK4 is a competitive antagonist of HGF, the liver plasma membrane (50 μg) was incubated in the presence of ¹²⁵I-HGF alone (60 pM) or a mixture of ¹²⁵I-HGF and a varying amount of unlabeled HGF or unlabeled HGF/NK4.

[5] = target: T1, c-Met/HGF receptor of rat liver plasma …; experiment: Scatchard analysis, 125I-HGF/NK4 on rat liver plasma membrane
Excerpt: as §1

Sequence of c-Met/HGF receptor expressed on the lung tumor cell line A549 (P08581 25-1390 limits assumed): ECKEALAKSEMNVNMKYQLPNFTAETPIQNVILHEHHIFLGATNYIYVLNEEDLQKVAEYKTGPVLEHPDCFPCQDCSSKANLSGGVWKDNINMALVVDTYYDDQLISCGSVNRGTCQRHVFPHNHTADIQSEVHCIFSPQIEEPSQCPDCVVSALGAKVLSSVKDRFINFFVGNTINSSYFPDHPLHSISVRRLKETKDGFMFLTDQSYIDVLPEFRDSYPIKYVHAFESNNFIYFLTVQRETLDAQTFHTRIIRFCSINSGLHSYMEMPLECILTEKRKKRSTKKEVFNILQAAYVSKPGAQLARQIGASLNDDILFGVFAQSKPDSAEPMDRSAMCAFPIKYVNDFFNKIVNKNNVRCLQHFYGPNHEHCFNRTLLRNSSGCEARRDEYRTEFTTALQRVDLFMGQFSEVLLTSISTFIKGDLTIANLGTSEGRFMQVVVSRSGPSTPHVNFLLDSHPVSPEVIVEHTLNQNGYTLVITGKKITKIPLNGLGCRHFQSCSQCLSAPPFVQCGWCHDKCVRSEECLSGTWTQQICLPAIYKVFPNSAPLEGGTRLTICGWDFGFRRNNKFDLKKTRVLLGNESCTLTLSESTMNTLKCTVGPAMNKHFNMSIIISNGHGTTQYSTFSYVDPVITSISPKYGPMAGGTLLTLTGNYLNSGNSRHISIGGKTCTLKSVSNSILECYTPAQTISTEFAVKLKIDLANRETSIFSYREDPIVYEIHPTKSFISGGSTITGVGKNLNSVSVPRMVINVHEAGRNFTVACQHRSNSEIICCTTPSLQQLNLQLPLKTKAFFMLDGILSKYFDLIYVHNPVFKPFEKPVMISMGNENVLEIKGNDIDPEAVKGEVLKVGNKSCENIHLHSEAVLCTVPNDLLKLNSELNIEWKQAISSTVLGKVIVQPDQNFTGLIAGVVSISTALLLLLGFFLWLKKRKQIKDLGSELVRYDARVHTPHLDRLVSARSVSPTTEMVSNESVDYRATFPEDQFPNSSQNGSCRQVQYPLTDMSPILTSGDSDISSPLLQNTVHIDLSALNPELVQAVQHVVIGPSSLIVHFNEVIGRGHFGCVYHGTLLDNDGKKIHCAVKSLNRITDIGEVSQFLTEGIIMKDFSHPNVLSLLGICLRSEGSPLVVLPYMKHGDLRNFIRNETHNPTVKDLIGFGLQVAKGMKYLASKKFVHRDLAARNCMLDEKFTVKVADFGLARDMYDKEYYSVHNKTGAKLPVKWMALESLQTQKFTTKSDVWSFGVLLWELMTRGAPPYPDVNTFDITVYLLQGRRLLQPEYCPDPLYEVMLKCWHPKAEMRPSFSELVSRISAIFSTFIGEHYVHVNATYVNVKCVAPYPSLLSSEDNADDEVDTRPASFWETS

Row | IC50 [1] | tyrosine phosphorylation of c-Met in A549 cells (immunoprecipitation with anti-c-Met antibody, Western blot with anti-phosphotyrosine antibody) [2] | Kd [3] | IC50 [4] | Kd [5] | Molecule
1 | 60 pM | 110 pM | 64.5 pM |  |  | recombinant human hepatocyte growth factor (HGF), heterodimer of alpha-chain and beta-chain (from UniProt P14210 32-494; P14210 495-728) (ligand)
2 |  |  |  | 600 pM | 486 pM | HGF/NK4 (PyrGlu32-Val478 region of human HGF, obtained by elastase digestion of recombinant HGF) (ligand, N-terminal residue is pyroglutamate (PyrGlu32 by prepro-HGF numbering; Xaa at position 1 of SEQ ID NO:1), also called unlabeled HGF/NK4) ERKRRNTIHEFKKSAKTTLIKIDPALKIKTKKVNTADQCANRCTRNKGLPFTCKAFVFDKARKQCLWFPFNSMSSGVKKEFGHEFDLYENKDYIRNCIIGKGRSYKGTVSITKSGIKCQPWSSMIPHEHSFLPSSYRGKDLQENYCRNPRGEEGGPWCFTSNPEVRYEVCDIPQCSEVECMTCNGESYRGLMDHTESGKICQRWDHQTPHRHKFLPERYPDKGFDDNYCRNPDGQPRPWCYTLDPHTRWEYCAIKTCADNTMNDTDVPLETTECIQGQGEGYRGTVNTIWNGIPCQRWDSQYPHEHDMTPENFKCKDLRENYCRNPDGSESPWCFTTDPNIRVGYCSQIPNCDMSHGQDCYRGNGKNYMGNLSQTRSGLTCSMWDKNMEDLHRHIFWEPDASKLNENYCRNPDDDAHGPWCYTGNPLIPWDYCPISRCEGDTTPTIV
